The results in this text go back to PMC6563288.

The target of this assay is VP1(289A)-Flag (enterovirus A71 (C4)). Kind of assay: co-IP.

Turning to “Vimentin (VIM) (from UniProt P08670 1-466) (natural protein)”, the fold VIM pulled down, against VP1(289T)-Flag is 1.6 fold.
